Data taken from doi:10.1101/2021.04.07.438849 (bioRxiv, 2021).

Target: T1, NTD of the SARS-CoV-2 spike protein (SARS-CoV-2 Wuhan-Hu-1, UniProt P0DTC2)
T1 construct: also called N-terminal domain
Experiment: ELISA
Conditions: both partners purified

B1: 8–131 (antibody, V domains shown)
VH: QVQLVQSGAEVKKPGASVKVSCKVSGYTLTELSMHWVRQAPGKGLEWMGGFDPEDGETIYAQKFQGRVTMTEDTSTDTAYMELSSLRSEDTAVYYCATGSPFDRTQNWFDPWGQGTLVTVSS
VL: QSVVTQPPSVSAAPGQKVTISCSGSRSNIGNNYVSWYQQLPGTAPKLLIYDYDKRPSGIPDRFSGSKSGTSATLGITGLQTGDEADYYCGTWDNSLSAGVFGGGTRLTVL
B1: binds.
